Source: the supplement of paper PMC7877785
± gives the uncertainty stated by the source.

Test: self-splicing fitness, log relative to wild type (ln ratio); higher = more splicing; Tetrahymena group I intron in knt gene, E. coli kanamycin selection, DiMSum; sequences stand for … in CUCUCU…GGAGGGAAAAGUUAUCAGGCAUGCACCUGGUAGCUAGUCUUUAAACCAAUAGAUUGCAUCGGUUUAAAAGGCAAGACCGUCAAAUUGCGGGAAAGGGGUCAACAGCCGUUCAGUACCAAGUCUCAGGGGAAACUUUGAGAUGGCCUUGCAAAGGGUAUGGUAAUAAGCUGACGGACAUGGUCCUAACCACGCAGCCAAGUCCUAAGUCAACAGAUCUUCUGUUGAUAUGGAUGCAGUUCACAGACUAAAUGUCGGUCGGGGAAGAUGUAUUCUUCUCAUAAGAUAUAGUCGGACCUCUCCUUAAUGGGAGCUAGCGGAUGAAGUGAUGCAACACUGGAGCCGCUGGGAACUAAUUUGUAUGCGAAAGUAUAUUGAUUAGUUUUGGAGUACUCGUGGUCG
In short: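 Fitness was computed with DiMSum as the error-weighted combination of replicate fold changes, kanamycin versus none, each normalised to wild type. The library randomised all eight intron nucleotides of the P1ex region, with the intron placed in the knt kanamycin-resistance gene on pET-22b(+) in E. coli BL21(DE3). Six replicate transformations were grown overnight at 37°C or 30°C on LB agar with or without 25 μg/mL kanamycin, plus 100 μg/mL carbenicillin, 50 μM IPTG and 0.2% rhamnose. Pooled colonies were amplicon-sequenced on an Illumina HiSeq 2500.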

For GGUAAGCAAUAUUACGCGAG, the “self-splicing fitness (ln)” value (30 °C) was -2.95 ± 0.15 and the “self-splicing fitness (ln)” value (37 °C) was -0.704 ± 0.09.
For ACCGAGCAAUAUUACGGGUG, the “self-splicing fitness (ln)” value (30 °C) was -1.43 ± 0.061 and the “self-splicing fitness (ln)” value (37 °C) was -1.08 ± 0.068.
With GUAGAGCAAUAUUACGAUAG the “self-splicing fitness (ln)” value (30 °C) was -2.06 ± 0.15 and the “self-splicing fitness (ln)” value (37 °C) was -1.42 ± 0.14.
For CGCAAGCAAUAUUACGGAGG, the “self-splicing fitness (ln)” value (30 °C) was -1.02 ± 0.057 and the “self-splicing fitness (ln)” value (37 °C) was -0.818 ± 0.072.
For GAGAAGCAAUAUUACGGAAA, the “self-splicing fitness (ln)” value (30 °C) was -2.35 ± 0.45 and the “self-splicing fitness (ln)” value (37 °C) was -1.92 ± 0.35.
With AACUAGCAAUAUUACGUUUC the “self-splicing fitness (ln)” value (30 °C) was -3.35 ± 0.18 and the “self-splicing fitness (ln)” value (37 °C) was -2.58 ± 0.25.
With CCGUAGCAAUAUUACGUGCC the “self-splicing fitness (ln)” value (30 °C) was -4.11 ± 0.47 and the “self-splicing fitness (ln)” value (37 °C) was -2.33 ± 0.28.
With UGCCAGCAAUAUUACGUACA the “self-splicing fitness (ln)” value (30 °C) was -0.269 ± 0.076 and the “self-splicing fitness (ln)” value (37 °C) was 0.081 ± 0.089.
With GGAUAGCAAUAUUACGCGGA the “self-splicing fitness (ln)” value (30 °C) was -2.65 ± 0.43 and the “self-splicing fitness (ln)” value (37 °C) was -1.57 ± 0.31.
With CGGCAGCAAUAUUACGCGCU the “self-splicing fitness (ln)” value (30 °C) was -4.1 ± 0.25 and the “self-splicing fitness (ln)” value (37 °C) was -1.99 ± 0.25.
For GUACAGCAAUAUUACGGUAA, the “self-splicing fitness (ln)” value (30 °C) was -0.865 ± 0.13 and the “self-splicing fitness (ln)” value (37 °C) was -0.97 ± 0.12.
For UCCGAGCAAUAUUACGGUCU, the “self-splicing fitness (ln)” value (30 °C) was -2.4 ± 0.15 and the “self-splicing fitness (ln)” value (37 °C) was -1.58 ± 0.13.
With AGGGAGCAAUAUUACGUUCA the “self-splicing fitness (ln)” value (30 °C) was -1.31 ± 0.18 and the “self-splicing fitness (ln)” value (37 °C) was -1.49 ± 0.19.
With CUCAAGCAAUAUUACGAGCU the “self-splicing fitness (ln)” value (30 °C) was -4.33 ± 0.3 and the “self-splicing fitness (ln)” value (37 °C) was -4.08 ± 0.39.
For CAAGAGCAAUAUUACGCCGA, the “self-splicing fitness (ln)” value (30 °C) was -2.4 ± 0.23 and the “self-splicing fitness (ln)” value (37 °C) was -1.04 ± 0.32.
In the case of UGUAAGCAAUAUUACGGACC, the “self-splicing fitness (ln)” value (30 °C) is reported as -1.18 ± 0.18 and the “self-splicing fitness (ln)” value (37 °C) is reported as -0.408 ± 0.18.
For GGAGAGCAAUAUUACGUUUA, the “self-splicing fitness (ln)” value (30 °C) was -3.83 ± 0.33 and the “self-splicing fitness (ln)” value (37 °C) was -2.03 ± 0.17.
For GCUUAGCAAUAUUACGCGGC, the “self-splicing fitness (ln)” value (30 °C) was -2.35 ± 0.29 and the “self-splicing fitness (ln)” value (37 °C) was -2.19 ± 0.37.
For CAGUAGCAAUAUUACGUAGG, the “self-splicing fitness (ln)” value (30 °C) was -0.361 ± 0.047 and the “self-splicing fitness (ln)” value (37 °C) was -0.0678 ± 0.066.
With AUUAAGCAAUAUUACGCCGC the “self-splicing fitness (ln)” value (37 °C) was -2.04 ± 0.47.
With GCAAAGCAAUAUUACGACAG the “self-splicing fitness (ln)” value (30 °C) was -3.2 ± 0.18 and the “self-splicing fitness (ln)” value (37 °C) was -2.68 ± 0.23.
In the case of GUUCAGCAAUAUUACGUGAA, the “self-splicing fitness (ln)” value (30 °C) is reported as -1.32 ± 0.087 and the “self-splicing fitness (ln)” value (37 °C) is reported as -0.784 ± 0.11.
With GUUCAGCAAUAUUACGCCCC the “self-splicing fitness (ln)” value (30 °C) was -0.521 ± 0.16 and the “self-splicing fitness (ln)” value (37 °C) was -0.42 ± 0.19.
In the case of CCGCAGCAAUAUUACGGAAA, the “self-splicing fitness (ln)” value (30 °C) is reported as -3.75 ± 0.3 and the “self-splicing fitness (ln)” value (37 °C) is reported as -3.29 ± 0.43.
With CGAUAGCAAUAUUACGUCCA the “self-splicing fitness (ln)” value (30 °C) was -1.86 ± 0.15 and the “self-splicing fitness (ln)” value (37 °C) was -0.237 ± 0.16.
With UCGGAGCAAUAUUACGAAAC the “self-splicing fitness (ln)” value (30 °C) was -2.87 ± 0.28.
In the case of ACGCAGCAAUAUUACGGAUU, the “self-splicing fitness (ln)” value (30 °C) is reported as -2.19 ± 0.08 and the “self-splicing fitness (ln)” value (37 °C) is reported as -0.83 ± 0.085.
For CAUAAGCAAUAUUACGAGUG, the “self-splicing fitness (ln)” value (30 °C) was -2.76 ± 0.19 and the “self-splicing fitness (ln)” value (37 °C) was -2.86 ± 0.2.
In the case of GUUUAGCAAUAUUACGCGCU, the “self-splicing fitness (ln)” value (30 °C) is reported as -1.52 ± 0.29 and the “self-splicing fitness (ln)” value (37 °C) is reported as -0.397 ± 0.44.
For GACAAGCAAUAUUACGCAGG, the “self-splicing fitness (ln)” value (30 °C) was -3 ± 0.13 and the “self-splicing fitness (ln)” value (37 °C) was -1.71 ± 0.13.
With UUACAGCAAUAUUACGAUCC the “self-splicing fitness (ln)” value (30 °C) was -3.16 ± 0.13 and the “self-splicing fitness (ln)” value (37 °C) was -2.28 ± 0.16.
With UCGAAGCAAUAUUACGUCCA the “self-splicing fitness (ln)” value (30 °C) was -1.08 ± 0.13 and the “self-splicing fitness (ln)” value (37 °C) was -0.411 ± 0.14.
With CAUAAGCAAUAUUACGUUAC the “self-splicing fitness (ln)” value (30 °C) was -3.85 ± 0.24 and the “self-splicing fitness (ln)” value (37 °C) was -2.15 ± 0.24.
For CCAAAGCAAUAUUACGAUCA, the “self-splicing fitness (ln)” value (30 °C) was -2.94 ± 0.13 and the “self-splicing fitness (ln)” value (37 °C) was -3.1 ± 0.31.
In the case of UAUGAGCAAUAUUACGUAAC, the “self-splicing fitness (ln)” value (30 °C) is reported as -2.86 ± 0.36.
With UUAUAGCAAUAUUACGCGGC the “self-splicing fitness (ln)” value (30 °C) was -2.42 ± 0.49 and the “self-splicing fitness (ln)” value (37 °C) was -2.4 ± 0.37.
For CAACAGCAAUAUUACGUAGG, the “self-splicing fitness (ln)” value (30 °C) was -0.482 ± 0.055 and the “self-splicing fitness (ln)” value (37 °C) was 0.249 ± 0.069.
With GUCAAGCAAUAUUACGGGCG the “self-splicing fitness (ln)” value (30 °C) was -3.08 ± 0.17 and the “self-splicing fitness (ln)” value (37 °C) was -0.583 ± 0.13.
